According to PMC12022308 (Nature Communications, 2025):

Biological target: the molecule itself
Assay: cryo-EM structure

B1: L-protein (homodimeric BchL protein, electron donor component of DPOR) (natural protein, Rhodobacter sphaeroides, UniProt Q9RFD6 1-297, looked up)
chain: MSPKDLTIPTGADGEGSVQVHLDEADKITGAKVFAVYGKGGIGKSTTSSNLSAAFSILGKRVLQIGCDPKHDSTFTLTGSLVPTVIDVLKDVDFHPEELRPEDFVFEGFNGVMCVEAGGPPAGTGCGGYVVGQTVKLLKQHHLLDDTDVVIFDVLGDVVCGGFAAPLQHADQAVVVTANDFDSIYAMNRIIAAVQAKSKNYKVRLAGCVANRSRATDEVDRFCKETNFRRLAHMPDLDAIRRSRLKKKTLFEMDEDQDVLAARAEYIRLAESLWRGLDPIDPHSLPDRDIFELLGFD
  stoichiometry N: 2
